Data on two molecules can be found in patent US20180016328A1 (WASHINGTON UNIVERSITY, published 2018).

This assay concerns the target T1, mouse tau (mouse, UniProt P10637-2 2-430, limits assumed).
T1 construct: also called mouse brain lysate comprising tau
The assay is described as follows: Western blot of mouse brain lysate probed with the scFv (FIG. 4). From the text:
FIG. 4 depicts Western blots showing that the scFv's detect human but not mouse tau. Mouse brain lysate comprising tau and recombinant human tau were both run on a gel and the scFv's SC1 (A) and SC3 (B) were used to detect tau. Recombinant human tau was detected by SC1 and SC3; mouse tau was not. Anti-vinculin Western blot was used as a loading control for tissue samples.

T1 sequence (P10637 other isoform, or with tags, fused parts or gaps limits assumed): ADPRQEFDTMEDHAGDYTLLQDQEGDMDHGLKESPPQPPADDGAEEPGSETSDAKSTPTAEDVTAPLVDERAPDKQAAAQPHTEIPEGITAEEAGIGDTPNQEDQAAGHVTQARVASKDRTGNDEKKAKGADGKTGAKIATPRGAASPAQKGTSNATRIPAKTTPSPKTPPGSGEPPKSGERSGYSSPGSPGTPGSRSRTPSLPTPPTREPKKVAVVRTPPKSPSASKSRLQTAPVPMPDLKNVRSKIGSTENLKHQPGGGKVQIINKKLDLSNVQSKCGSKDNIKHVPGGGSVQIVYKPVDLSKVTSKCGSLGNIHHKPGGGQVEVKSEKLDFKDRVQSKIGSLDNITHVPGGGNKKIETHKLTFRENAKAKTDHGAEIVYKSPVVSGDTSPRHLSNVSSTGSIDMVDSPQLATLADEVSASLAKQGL

B1: SC1 scFv HJ8.5 HA (scFv)
scFv: DIVLTQSPASLAVSLGQRATISCRASQSVSTSRYSYIHWYQQKPGQPPKLLIKYASNLESGVPARFSGSGSGTDFTLNIHPLEEEDAATYYCHHSWEIPLTFGAGTKLELKGGGSEVKVEESGGGLVQPGGSMKLSCVVSGFTFSNYWVNWVRQSPEKGLEWVAQIRLKSDNYATHYEESVKGRFTISRDDSKSSVYLQMNNLRAEDSGIYYCTNWEDYWGQGTTLTVSSYPYDVPDYA
notes: Encoded with an N-terminal secretory signal peptide (SP), left out here because the secreted protein was tested; also called HJ8.5 scFv SC1
Turning to B1, the binding result is recorded as “no binding”.

B2: SC3 scFv HJ8.5 HA (scFv)
scFv: DIVLTQSPASLAVSLGQRATISCRASQSVSTSRYSYIHWYQQKPGQPPKLLIKYASNLESGVPARFSGSGSGTDFTLNIHPLEEEDAATYYCHHSWEIPLTFGAGTKLELKSGGGSGGGSGGGSEVKVEESGGGLVQPGGSMKLSCVVSGFTFSNYWVNWVRQSPEKGLEWVAQIRLKSDNYATHYEESVKGRFTISRDDSKSSVYLQMNNLRAEDSGIYYCTNWEDYWGQGTTLTVSSYPYDVPDYA
notes: Encoded with an N-terminal secretory signal peptide (SP), left out here because the secreted protein was tested; also called HJ8.5 scFv SC3
Regarding B2, the binding result is on record as “no binding”.
